Data published in patent US20160106863A1 (IMMUNOGEN, published 2016).

Experiments:
[1] = biological target: T47D cells (human) (UniProt P15328); experiment: flow cytometry binding on T47D cells
[2] = biological target: EGFR (UniProt P00533 25-1210, limits assumed); experiment: cell-based or functional assay

Chain of T47D cells (human) (P15328 25-234, stated change not applied): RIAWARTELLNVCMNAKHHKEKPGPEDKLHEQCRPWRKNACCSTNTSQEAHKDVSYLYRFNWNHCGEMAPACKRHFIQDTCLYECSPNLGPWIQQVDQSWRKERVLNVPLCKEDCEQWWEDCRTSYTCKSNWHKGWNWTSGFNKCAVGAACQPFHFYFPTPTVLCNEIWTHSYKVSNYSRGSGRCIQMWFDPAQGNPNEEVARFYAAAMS

With huMOV19 antibody the EC50 [1] was 0.203 nM.

B1: huML66-sulfo-SPDB-1d conjugate (antibody, human IgG1, kappa, V domains shown)
VH: QVQLQESGPGLVKPSETLSLTCTVSGLSLASNSVSWIRQPPGKGLEWMGVIWNHGGTDYNPSIKSRLSISRDTSKSQVFLKMNSLTAADTAMYFCVRKGGIYFDYWGQGVLVTVSS
VL: DTVLTQSPSLAVSPGERATISCRASESVSTLMHWYQQKPGQQPKLLIYLASHRESGVPARFSGSGSGTDFTLTIDPMEAEDTATYYCQQSRNDPWTFGQGTKLELKR
modifications: compound 1d linked via sulfo-SPDB linker, average of 3.0 molecules per antibody; attachment residues not stated
B1 was tested, and the “EC50 in pM, in vitro cytotoxicity (WST-8), Detroit562 cells” value [2] was 110 pM, the “EC50 in pM, in vitro cytotoxicity (WST-8), Detroit562 cells, + block (excess unconjugated antibody)” value [2] was 960 pM and the “EC50 in pM, in vitro cytotoxicity (WST-8), NCI-H292 cells” value [2] was 20 pM. For the same molecule, the “EC50 in pM, in vitro cytotoxicity (WST-8), NCI-H292 cells, + block (excess unconjugated antibody)” value [2] was 690 pM, the “EC50 in pM, in vitro cytotoxicity (WST-8), NCI-H1703 cells” value [2] was 70 pM and the “EC50 in pM, in vitro cytotoxicity (WST-8), NCI-H1703 cells, + block (excess unconjugated antibody)” value [2] was 1310 pM.
